# Laboratory results reported in the supplement of paper PMC9170038.
# Experiments:
# Settings in all cases: FMN input: 0 or 200 uM; Eterna round: R93 (includes R88 designs)
# MS2 coat protein [1] = assay: apparent KD of MS2 coat protein, switch ON state; designed switch direction (-1 OFF switch, 1 ON switch): 1; higher = weaker reporter binding
# How it was run: (§1)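 With or without constant ligand, designed RNA switches in 100 mM Tris-HCl pH 7.5, 80 mM KCl and 4 mM MgCl2 were titrated with SNAP-549-labelled MS2 coat protein. Concentrations went up in twofold steps from 0.7 or 1.5 nM to 3 µM. The switches had been transcribed on-chip from Illumina sequencing clusters, and apparent KD is the per-design median of normalised cluster binding-curve fits.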
# MS2 coat protein [2] = assay: apparent KD of MS2 coat protein, switch OFF state (with FMN for OFF switches, without FMN for ON switches); designed switch direction (-1 OFF switch, 1 ON switch): 1; higher = weaker reporter binding
# How it was run: as §1
# MS2 coat protein [3] = assay: apparent KD of MS2 coat protein, switch ON state; designed switch direction (-1 OFF switch, 1 ON switch): -1; higher = weaker reporter binding
# How it was run: as §1
# MS2 coat protein [4] = assay: apparent KD of MS2 coat protein, switch OFF state (with FMN for OFF switches, without FMN for ON switches); designed switch direction (-1 OFF switch, 1 ON switch): -1; higher = weaker reporter binding
# How it was run: as §1
sequence,measurement,setting,value
AAAAAAAAAAGACAGGAUAUCCAAAAAAAAACAUGAGGAUCACCCAUGUAAAAAAAAAAAAAAUGGGAGAAGGGUCAAAAAAAAAA [Louisiana 5 - Jieux - Same State 2],apparent KD of MS2 coat protein,MS2 coat protein [1],21.9 nM
same,apparent KD of MS2 coat protein,MS2 coat protein [2],36.5 nM
AAAAAAAAAAGGCAGGAUAUCCAAAAAAAAACAUGAGGAUCACCCAUGUAAAAAAAAAAAAAAUGGGAGAAGGGCCAAAAAAAAAA [Mat - Mod of Eli],apparent KD of MS2 coat protein,MS2 coat protein [1],24.9 nM
same,apparent KD of MS2 coat protein,MS2 coat protein [2],46.3 nM
AAAAAACAUGAGGAUCACCCAUGUAAAAAAAACGCAGGAUAUCCCUUUUUUAAAUGGGAGGGAGAAGGGUGAAAAA [Nob's Hobby 13 - Jieux - Same State 1],apparent KD of MS2 coat protein,MS2 coat protein [1],22.4 nM
same,apparent KD of MS2 coat protein,MS2 coat protein [2],43.8 nM
AAAAAACAUGAGGAUCACCCAUGUAAAAAAAUGGGAGGAUAUAUGAAAAAAAAAAAAAAAAUAGAAGGCCUGAAAA [same state 11],apparent KD of MS2 coat protein,MS2 coat protein [1],399 nM
same,apparent KD of MS2 coat protein,MS2 coat protein [2],64.2 nM
AAAAAACAUGAGGAUCACCCAUGUAAAAAUAUGGGAGGAUAUUCAAACACGAAAGUGAAAGAAGAAGGCCUAAAAA [SS! MT 18],apparent KD of MS2 coat protein,MS2 coat protein [1],15 nM
same,apparent KD of MS2 coat protein,MS2 coat protein [2],139 nM
AAAAAACAUGAGGAUCACCCAUGUAAAUCUCAUGUAGGAUAUACAAAAAAAAAAAAAAAAGUAGAAGGACAAAAAA [Omei A variation 5],apparent KD of MS2 coat protein,MS2 coat protein [1],125 nM
same,apparent KD of MS2 coat protein,MS2 coat protein [2],75.2 nM
AAAAAACAUGAGGAUCACCCAUGUCAAAAGACGUGAGGAUAUGUACAGACUUCGGUCUGUACAGAAGGCACGAAAA [SS1 - 1037],apparent KD of MS2 coat protein,MS2 coat protein [1],12.9 nM
same,apparent KD of MS2 coat protein,MS2 coat protein [2],20.1 nM
AAAAAACAUGAGGAUCACCCAUGUCCUCGGACGUGAGGAUAUGUACAGACUUCGGUCUGUACAGAAGGCACGAAAA [SS1 - 1036],apparent KD of MS2 coat protein,MS2 coat protein [1],503 nM
same,apparent KD of MS2 coat protein,MS2 coat protein [2],319 nM
AAAAAACAUGAGGAUCACCCAUGUGAAAAAAACGCAGGAUAUCCCUUUUUUAAAUGGGAGGGAGAAGGGUGAAAAA [Nob's Hobby 14 - Jieux - Same State 1],apparent KD of MS2 coat protein,MS2 coat protein [1],36.3 nM
same,apparent KD of MS2 coat protein,MS2 coat protein [2],45.9 nM
AAAAAACAUGAGGAUCACCCAUGUGCAAAAUUCGCAGGAUAUCCCUUUUUUAAAUGGGAGGGAGAAGGGUGUAAAA [Nob's Hobby 18 - Jieux - Same State 1],apparent KD of MS2 coat protein,MS2 coat protein [1],27.1 nM
same,apparent KD of MS2 coat protein,MS2 coat protein [2],47.4 nM
AAAAAACAUGAGGAUCACCCAUGUGCAAAAUUCGCAGGAUAUUUUUCUUUUAAAUGAGAGGGAGAAGGGUGUAAAA [Nob's Hobby 23 - Jieux - Same State 1],apparent KD of MS2 coat protein,MS2 coat protein [1],21.6 nM
same,apparent KD of MS2 coat protein,MS2 coat protein [2],22.1 nM
AAAAAACAUGAGGAUCACCCAUGUGCAAAAUUCGCAGGAUAUUUUUUUUUUAAAUGAGAGGGAGAAGGGUGUAAAA [Nob's Hobby 22 - Jieux - Same State 1],apparent KD of MS2 coat protein,MS2 coat protein [1],27.4 nM
same,apparent KD of MS2 coat protein,MS2 coat protein [2],33 nM
AAAAAAUAAAAAAAGGAUAUAAAUGCUAGAACAUGAGGAUCACCCAUGUACUAGCAAAAAAUAAAAAAGAAGGAAAAAUAAAAAA [SS2: MS2 18],apparent KD of MS2 coat protein,MS2 coat protein [1],15.6 nM
same,apparent KD of MS2 coat protein,MS2 coat protein [2],14.8 nM
AAAAAGGAGAGAGAGGAUAUCCAAAGGAAAACAUGAGGAUCACCCAUGUAAAAGGUAGGAAAUUGGGAGAAGGCUCAAGAGAGAG [salish99-ss2-107],apparent KD of MS2 coat protein,MS2 coat protein [1],17.6 nM
same,apparent KD of MS2 coat protein,MS2 coat protein [2],36.5 nM
AAAACACAUGAGGAUCACCCAUGUAAAAACAUGAGAGGAUAUGCAUGAAAAACAUGCUAUGCAGAAGGCUCAUGUG [SS1 - 1],apparent KD of MS2 coat protein,MS2 coat protein [1],20.9 nM
same,apparent KD of MS2 coat protein,MS2 coat protein [2],27.2 nM
AAAAGACAUGAGGAUCACCCAUGUAAAAACGUAGGAGGAUAUGUCUGGAAAACAUGCUGGACAGAAGGCCUGUGUC [SS1 - 29],apparent KD of MS2 coat protein,MS2 coat protein [1],17.6 nM
same,apparent KD of MS2 coat protein,MS2 coat protein [2],25.2 nM
AAAAGACAUGAGGAUCACCCAUGUAAAGACAUAGGAGGAUAUGUCGUGAAAAAAGACUUGGCAGAAGGCCUUUGUC [SS1 - 46],apparent KD of MS2 coat protein,MS2 coat protein [1],21 nM
same,apparent KD of MS2 coat protein,MS2 coat protein [2],25.6 nM
AAAAGACAUGAGGAUCACCCAUGUCAAAACGUGGGAGGAUAUGCAUGGAAAACAUGCUGUGCAGAAGGCCCGUGUC [SS1 - 21],apparent KD of MS2 coat protein,MS2 coat protein [1],27.5 nM
same,apparent KD of MS2 coat protein,MS2 coat protein [2],46.4 nM
AAAAGGCUAAACUAGGAUAUGGGUGUCUAAACAUGAGGAUCACCCAUGUGAUGGCAAAACAAAGCUCAGAAGGAGUGGUAGCCCA [Riquceri],apparent KD of MS2 coat protein,MS2 coat protein [1],12.4 nM
same,apparent KD of MS2 coat protein,MS2 coat protein [2],56.7 nM
AAAAGGGCGACACAGGAUAUGUUGACUCUAACAUGAGGAUCACCCAUGUGCGUUUAGGGUCGUGCGCAGAAGGGUGUAGCUCGGA [Orvele],apparent KD of MS2 coat protein,MS2 coat protein [1],12.9 nM
same,apparent KD of MS2 coat protein,MS2 coat protein [2],24.1 nM
AAAAUAAAAUAAAAGGAUAUAAAAUAAAAUACAUGAGGAUCACCCAUGUAUAAAAUAAAAAAAUAAAAGAAGGAAUAAAAAUAAA [SS2 504: MS2 4],apparent KD of MS2 coat protein,MS2 coat protein [1],16.4 nM
same,apparent KD of MS2 coat protein,MS2 coat protein [2],11.2 nM
AAAAUACAUGAGGAUCACCCAUGUCCGACAAAUCAAGGAUAUGAUAGCCAAACCAGGCUGUUAGAAGGUGAAAGAA [Esesrien],apparent KD of MS2 coat protein,MS2 coat protein [1],260 nM
same,apparent KD of MS2 coat protein,MS2 coat protein [2],151 nM
"AAACCACAUGAGGAUCACCCAUGUGAAAUACACAUAGGAUAUGCGAAAAGAAACAAAGAAGCAGAAGGGUGAAAAA [75%, Ex sub1, 17]",apparent KD of MS2 coat protein,MS2 coat protein [1],35.4 nM
same,apparent KD of MS2 coat protein,MS2 coat protein [2],41.3 nM
AAAGACAUGGUGCAGGAUAUAUUAAUAGUCACAUGAGGAUCACCCAUGUUCAUAUAUAUGAACGAGUAGAAGGGCGAUGAAAAAA [SameState2 Malc#6],apparent KD of MS2 coat protein,MS2 coat protein [1],98 nM
same,apparent KD of MS2 coat protein,MS2 coat protein [2],90.8 nM
AAAUAAAAAAAAAAGGAUAUUCAUGUAAAAACAUGAGGAUCACCCAUGUAAAAAAAUAAAAAUAAAAAGAAGGAAAAAUAAAAAA [SS2: 85 No MS2],apparent KD of MS2 coat protein,MS2 coat protein [1],77.1 nM
same,apparent KD of MS2 coat protein,MS2 coat protein [2],164 nM
AAAUAAAGGACUAAGGAUAUAUCGCAUGACACAUGAGGAUCACCCAUGUGGUAACACAGAGGGUGAUAGAAGGUAGUCCACAAACA [Pariah 6 (MS2 Riboswitches - Same State 2)],apparent KD of MS2 coat protein,MS2 coat protein [1],42.8 nM
same,apparent KD of MS2 coat protein,MS2 coat protein [2],287 nM
UCCGGACAUGAGGAUCACCCAUGUGAGGAUAUAUAACGUGGGACUGGAAACAAUCCCAAUAGAAGGCACAUGAC [Reisatridi],apparent KD of MS2 coat protein,MS2 coat protein [3],21.5 nM
same,apparent KD of MS2 coat protein,MS2 coat protein [4],20.2 nM
UCCUCACAUGAGGAUCACCCAUGUGAGGAUAUGUACAUCAGGAAAAAAAAACUGAUGUACAGAAGGCACAUGGA [Design 9: Super Stable G-C 2],apparent KD of MS2 coat protein,MS2 coat protein [3],15.9 nM
same,apparent KD of MS2 coat protein,MS2 coat protein [4],11.2 nM
UUUAAGUCAGGAUAUUCGGAUAGGAAAACGAAAACCUAUCCGAAGAAGGGACAUGAGGAUCACCCAUGUAAAAA [Starry Exclusion 4.3 (cataway round 1 mod)],apparent KD of MS2 coat protein,MS2 coat protein [3],52.1 nM
same,apparent KD of MS2 coat protein,MS2 coat protein [4],56.3 nM
